“And” between values parts separate entries of the source, which are not always exact repeats. Equal entries are not always repeated. Non-standard residues stand in square brackets, D forms with d. No end group written: not given here. hArg = N=C(N)NCCCC[C@H](N)C(=O)O
T1: Nat1 (LTIITLE) (also: TFA salt)
T1 peptide: LTIITLE


Target: T1, Nat1 (LTIITLE)
Test: cell-based or functional assay

IC50, Thiofiavin T aggregation assay	Binder
147 nM and 164 nM	[dF][dW][dR][dW][dH][dR][dR] [fwrwhrr]
187 nM	[dS][dW][dW][dF][dR][dH][dR] [swwfrhr]
181 nM	[dQ][dF][dR][dM][dH][dH][dR] [qfrmhhr]
167 nM	[dQ][dI][dR][dY][dF][dR][dR] [qiryfrr]
182 nM	LRIRHYT
175 nM	YRLRYVR
153 nM	IRLRRYR
156 nM	[dR][dW][dR][dW][dH][dH][dR] [rwrwhhr]
185 nM	FRIRRYR
36 nM	LRIRYWK
192 nM	[dH][dL][dR][dY][dH][dR][dK] [hlryhrk]
144 nM	ARIRRYR
181 nM	[dY][dQ][dY][dY][dF][dW][dR] [yqyyfwr]
145 nM	[dR][dW][dH][dW][dH][dW][dR] [rwhwhwr]
152 nM	LRIYHHK
176 nM	[dF][dW][dR][dW][dA][dR][dR] [fwrwarr]
148 nM	LYIKYHR
180 nM	LYIRYTH
146 nM	LRLRHYR
40 nM	IRI[hArg]RYR [Ile-Arg-Ile-homoArg-Arg-Tyr-Arg]
159 nM	[dH][dW][dR][dW][dY][dW][dK] [hwrwywk]
151 nM	[dF][dF][dR][dF][dH][dH][dR] [ffrfhhr]
142 nM	IRIRHYRP
37 nM	IRIRRAR
191 nM	[dY][dQ][dW][dR][dY][dR][dR] [yqwryrr]
150 nM	YTRITYH
